Source: article PMC8166844, “The FlhA linker mediates flagellar protein export switching during flagellar assembly” (Communications Biology, 2021)

Legend:
[1] = biological target: GST-FliJ (Salmonella enterica), P0A1K1; assay: BLI; GST-FliJ immobilised on an anti-GST sensor tip (BLItz), His-FlhAC or its variants in solution at various concentrations; kinetic buffer PBS pH 7.4, 0.1% BSA, 0.002% Tween-20; 25 °C; wild type fitted with a two-state reaction model, FlhAC-EWD and FlhAC-ΔL with the Hill equation; n = 3; details: remark: other sources report otherwise
[2] = biological target: T1, GST-FlgN (Salmonella enterica), P0A1J7; assay: BLI; GST-FlgN immobilised on an anti-GST sensor tip (BLItz), His-FlhAC or its variants in solution at various concentrations; kinetic buffer PBS pH 7.4, 0.1% BSA, 0.002% Tween-20; 25 °C; FlhAC-ED and FlhAC-EWD fitted with a two-state reaction model, FlhAC-ΔL with a heterogeneous reaction model; n = 3; details: remark: other sources report otherwise
T1 chain: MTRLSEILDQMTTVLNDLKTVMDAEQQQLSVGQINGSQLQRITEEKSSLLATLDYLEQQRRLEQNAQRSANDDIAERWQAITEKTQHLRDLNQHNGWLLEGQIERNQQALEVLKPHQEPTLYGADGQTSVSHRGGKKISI

[3] = biological target: T2, His-FlhAC lacking FlhAL (residues 328–361) (Salmonella enterica, UniProt P40729 362-692); assay: as above; details: both partners purified
T2 construct: also called FlhAC-ΔL; His-FlhAC-ΔL
T2 sequence: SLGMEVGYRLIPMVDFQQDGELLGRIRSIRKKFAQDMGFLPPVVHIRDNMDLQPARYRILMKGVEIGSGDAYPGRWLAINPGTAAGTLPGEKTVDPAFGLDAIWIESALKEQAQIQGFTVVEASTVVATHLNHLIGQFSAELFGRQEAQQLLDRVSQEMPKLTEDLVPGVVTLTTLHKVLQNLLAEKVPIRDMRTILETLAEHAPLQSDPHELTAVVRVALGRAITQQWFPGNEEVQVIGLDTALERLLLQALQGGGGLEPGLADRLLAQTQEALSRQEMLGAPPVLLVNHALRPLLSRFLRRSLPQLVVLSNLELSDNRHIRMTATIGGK

[4] = biological target: T3, His-FlhAC(E351A/W354A/D356A) (Salmonella enterica, UniProt P40729 328-692, E351A | W354A | D356A); assay: as above; details: both partners purified
T3 construct: also called FlhAC-EWD; His-FlhAC-EWD
T3 sequence: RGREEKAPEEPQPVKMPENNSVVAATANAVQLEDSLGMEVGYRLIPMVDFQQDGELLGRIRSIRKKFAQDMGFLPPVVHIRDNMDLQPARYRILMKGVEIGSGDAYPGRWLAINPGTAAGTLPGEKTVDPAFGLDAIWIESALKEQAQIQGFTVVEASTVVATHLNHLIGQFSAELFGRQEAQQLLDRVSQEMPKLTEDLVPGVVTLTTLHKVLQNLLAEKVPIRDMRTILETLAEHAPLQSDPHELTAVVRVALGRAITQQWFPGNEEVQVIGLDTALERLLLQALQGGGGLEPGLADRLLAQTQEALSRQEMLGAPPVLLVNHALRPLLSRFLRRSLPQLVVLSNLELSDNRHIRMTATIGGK

[5] = biological target: T4, His-FlhAC (C-terminal cytoplasmic domain of FlhA, residues 328–692), wild type (Salmonella enterica, UniProt P40729 328-692); assay: as above; details: both partners purified
T4 construct: also called wild-type FlhAC; WT
T4 sequence: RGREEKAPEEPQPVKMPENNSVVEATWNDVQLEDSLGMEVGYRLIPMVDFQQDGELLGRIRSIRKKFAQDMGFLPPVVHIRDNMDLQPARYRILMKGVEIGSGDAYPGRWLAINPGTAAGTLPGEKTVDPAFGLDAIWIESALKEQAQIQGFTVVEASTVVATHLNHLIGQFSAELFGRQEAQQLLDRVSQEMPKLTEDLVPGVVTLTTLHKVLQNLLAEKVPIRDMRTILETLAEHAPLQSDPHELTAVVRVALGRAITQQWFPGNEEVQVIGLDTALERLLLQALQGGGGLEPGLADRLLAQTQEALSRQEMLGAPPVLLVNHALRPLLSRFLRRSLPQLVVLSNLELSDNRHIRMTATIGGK

Sequence of GST-FliJ (Salmonella enterica), P0A1K1 (P0A1K1 whole entry): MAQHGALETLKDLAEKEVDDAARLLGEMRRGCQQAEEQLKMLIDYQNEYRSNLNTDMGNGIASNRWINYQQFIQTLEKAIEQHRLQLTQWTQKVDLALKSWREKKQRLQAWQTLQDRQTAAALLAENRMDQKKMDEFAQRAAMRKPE

B1: His-FlhAC (C-terminal cytoplasmic domain of FlhA, residues 328–692), wild type, P40729 328-692 (domain or fragment)
chain: RGREEKAPEEPQPVKMPENNSVVEATWNDVQLEDSLGMEVGYRLIPMVDFQQDGELLGRIRSIRKKFAQDMGFLPPVVHIRDNMDLQPARYRILMKGVEIGSGDAYPGRWLAINPGTAAGTLPGEKTVDPAFGLDAIWIESALKEQAQIQGFTVVEASTVVATHLNHLIGQFSAELFGRQEAQQLLDRVSQEMPKLTEDLVPGVVTLTTLHKVLQNLLAEKVPIRDMRTILETLAEHAPLQSDPHELTAVVRVALGRAITQQWFPGNEEVQVIGLDTALERLLLQALQGGGGLEPGLADRLLAQTQEALSRQEMLGAPPVLLVNHALRPLLSRFLRRSLPQLVVLSNLELSDNRHIRMTATIGGK
For B1, the Kd [1] was 1.36 µM.

B2: His-FlhAC(E351A/W354A/D356A), P40729 328-692 (domain or fragment)
chain: RGREEKAPEEPQPVKMPENNSVVAATANAVQLEDSLGMEVGYRLIPMVDFQQDGELLGRIRSIRKKFAQDMGFLPPVVHIRDNMDLQPARYRILMKGVEIGSGDAYPGRWLAINPGTAAGTLPGEKTVDPAFGLDAIWIESALKEQAQIQGFTVVEASTVVATHLNHLIGQFSAELFGRQEAQQLLDRVSQEMPKLTEDLVPGVVTLTTLHKVLQNLLAEKVPIRDMRTILETLAEHAPLQSDPHELTAVVRVALGRAITQQWFPGNEEVQVIGLDTALERLLLQALQGGGGLEPGLADRLLAQTQEALSRQEMLGAPPVLLVNHALRPLLSRFLRRSLPQLVVLSNLELSDNRHIRMTATIGGK
Work on B2 yielded a Kd [1] of 60.7 µM.

B3: His-FlhAC(E351A/D356A), P40729 328-692 (domain or fragment)
chain: RGREEKAPEEPQPVKMPENNSVVAATWNAVQLEDSLGMEVGYRLIPMVDFQQDGELLGRIRSIRKKFAQDMGFLPPVVHIRDNMDLQPARYRILMKGVEIGSGDAYPGRWLAINPGTAAGTLPGEKTVDPAFGLDAIWIESALKEQAQIQGFTVVEASTVVATHLNHLIGQFSAELFGRQEAQQLLDRVSQEMPKLTEDLVPGVVTLTTLHKVLQNLLAEKVPIRDMRTILETLAEHAPLQSDPHELTAVVRVALGRAITQQWFPGNEEVQVIGLDTALERLLLQALQGGGGLEPGLADRLLAQTQEALSRQEMLGAPPVLLVNHALRPLLSRFLRRSLPQLVVLSNLELSDNRHIRMTATIGGK
Binder B3 has a Kd [2] of 37.8 µM.

B4: GST-FlgN (natural protein)
chain: MTRLSEILDQMTTVLNDLKTVMDAEQQQLSVGQINGSQLQRITEEKSSLLATLDYLEQQRRLEQNAQRSANDDIAERWQAITEKTQHLRDLNQHNGWLLEGQIERNQQALEVLKPHQEPTLYGADGQTSVSHRGGKKISI
notes: also called pMMGN101
With B4 the Kd [3] was 3.1 µM, the Kd [4] was 31.2 µM and the Kd [5] was 0.095 µM. The koff [5] was ~0.000781 s⁻¹ and the kon [5] was ~8230 M⁻¹ s⁻¹.

B5: His-FlhAC lacking FlhAL (residues 328–361), P40729 362-692 (domain or fragment)
chain: SLGMEVGYRLIPMVDFQQDGELLGRIRSIRKKFAQDMGFLPPVVHIRDNMDLQPARYRILMKGVEIGSGDAYPGRWLAINPGTAAGTLPGEKTVDPAFGLDAIWIESALKEQAQIQGFTVVEASTVVATHLNHLIGQFSAELFGRQEAQQLLDRVSQEMPKLTEDLVPGVVTLTTLHKVLQNLLAEKVPIRDMRTILETLAEHAPLQSDPHELTAVVRVALGRAITQQWFPGNEEVQVIGLDTALERLLLQALQGGGGLEPGLADRLLAQTQEALSRQEMLGAPPVLLVNHALRPLLSRFLRRSLPQLVVLSNLELSDNRHIRMTATIGGK
For B5, the Kd [1] was 49 µM.
